# Experimental data: PMC11551755, “Structure-based discovery of first inhibitors targeting the helicase activity of human PIF1” (Nucleic Acids Research, 2024)
# Where a chain is given by its changes, count along the chain named.
# T1: hPIF1HD V258L (Homo sapiens, UniProt Q9H611 206-620, V258L)
# T1 sequence: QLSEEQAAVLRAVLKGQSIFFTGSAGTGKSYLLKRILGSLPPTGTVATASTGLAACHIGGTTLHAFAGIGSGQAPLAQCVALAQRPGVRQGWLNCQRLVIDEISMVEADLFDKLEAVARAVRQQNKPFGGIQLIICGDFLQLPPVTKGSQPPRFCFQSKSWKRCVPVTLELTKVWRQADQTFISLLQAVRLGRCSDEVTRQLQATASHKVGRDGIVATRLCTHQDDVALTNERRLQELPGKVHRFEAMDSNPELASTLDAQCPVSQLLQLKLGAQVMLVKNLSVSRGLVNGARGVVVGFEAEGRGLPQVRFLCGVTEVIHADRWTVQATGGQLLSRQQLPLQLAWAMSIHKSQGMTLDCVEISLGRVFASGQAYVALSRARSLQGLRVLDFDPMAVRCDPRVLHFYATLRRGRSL
# T2: hPIF1HD V258A (Homo sapiens, UniProt Q9H611 206-620, V258A)
# T2 sequence: T1 sequence with L53A
# B1: oligo d(T)55 (ssDNA)
# DNA: TTTTTTTTTTTTTTTTTTTTTTTTTTTTTTTTTTTTTTTTTTTTTTTTTTTTTTT
# Tests used:
# [1] = biological target: T1, hPIF1HD V258L; assay: EMSA; 5 mM AMP-PNP, 5.5 mM MgCl2; no inhibitor; 20 mM HEPES-NaOH pH 7.5, 20 mM NaCl, 5.5 mM MgCl2, 5 mM AMP-PNP, 1 mM DTT, 0.1 mg/ml BSA; 0.25 nM DNA; binding temperature not stated explicitly (helicase assay conditions 37 C); 5% PAGE, 0.25x TBE; settings: protein: recombinant; tags: N-terminal His6 removed; GSRM cloning residues remain; label: 5'-32P; single strand
# [2] = biological target: T2, hPIF1HD V258A; assay: as above; settings: protein: recombinant; tags: N-terminal His6 removed; GSRM cloning residues remain; label: 5'-32P; single strand
binder,measurement,setting,value
B1,binding signal,[1],~1 fold vs wild type (near equivalent)
same,binding signal,[2],~2 fold reduced vs wild type
